# Source: paper PMC6882821, “Production of recombinant soluble dimeric C-type lectin-like receptors of rat natural killer cells” (Scientific Reports, 2019)
# Assays:
# [1] = target: Clr-11-FcHis fusion protein (Clr-11^WAG in pHLsec-FcHis, uncleaved) (rat (WAG strain) | human) (UniProt Q0H8B9); experiment: SEC; gel filtration on Superdex 200 HR 10/30, room temperature
# [2] = target: Clr-11-FcHis fusion protein (Clr-11^WAG in pHLsec-FcHis, uncleaved) (rat (WAG strain) | human) (UniProt Q0H8B9); experiment: AUC; sedimentation velocity, 0.2 mg/ml, 48000 rpm, 20 °C, 10 mM HEPES pH 7.0, 150 mM NaCl, 10 mM NaN3, c(s) model
# [3] = target: Clr-11^WAG V65-M207, histidine-tagged, expressed from pHLsec (rat (WAG strain)) (UniProt Q0H8B9); experiment: AUC; sedimentation equilibrium, 0.1 mg/ml, 12-15-18-21-24000 rpm, 4 °C, non-interacting discrete species model
# [4] = target: Clr-11^WAG V65-M207, histidine-tagged, expressed from pHLsec (rat (WAG strain)) (UniProt Q0H8B9); experiment: SEC; gel filtration on Superdex 200 HR 10/30, room temperature
# [5] = target: Clr-11^WAG V65-M207, histidine-tagged, expressed from pHLsec (rat (WAG strain)) (UniProt Q0H8B9); experiment: AUC; sedimentation velocity, 0.2 mg/ml, 48000 rpm, 20 °C, 10 mM HEPES pH 7.0, 150 mM NaCl, 10 mM NaN3, c(s) model
# [6] = target: Clr-11^WAG V65-M207, histidine-tagged, expressed from pHLsec (rat (WAG strain)) (UniProt Q0H8B9); experiment: non-reducing SDS-PAGE with Western blot; small-scale expression test; 10 ul of culture supernatant 3 days after transfection, 15% SDS-PAGE under non-reducing conditions, detected by PentaHis mAb; shows covalent dimers
# [7] = target: Clr-11^WAG cleaved from the pHLsec-FcHis fusion by HRV 3C protease (rat (WAG strain)) (UniProt Q0H8B9); experiment: SEC; gel filtration on Superdex 200 HR 10/30, room temperature
# [8] = target: Clr-11^WAG cleaved from the pHLsec-FcHis fusion by HRV 3C protease (rat (WAG strain)) (UniProt Q0H8B9); experiment: AUC; sedimentation velocity, 0.2 mg/ml, 48000 rpm, 20 °C, 10 mM HEPES pH 7.0, 150 mM NaCl, 10 mM NaN3, c(s) model
# [9] = target: NKR-P1B^SD C-terminal FcHis fusion protein (pHLsec-FcHis, uncleaved) (rat (SD strain) | human) (UniProt A4KWA1); experiment: not stated; data not shown; purified C-terminal FcHis fusion proteins
# [10] = target: NKR-P1B^WAG C-terminal FcHis fusion protein (pHLsec-FcHis, uncleaved) (rat (WAG strain) | human) (UniProt Q5NKN4); experiment: as above
# [11] = target: pYD5 Fc-NKR-P1B^SD fusion protein (uncleaved) (human | rat (SD strain)) (UniProt A4KWA1); experiment: SEC; gel filtration on Superdex 200 HR 10/30, room temperature
# [12] = target: pYD5 Fc-NKR-P1B^SD fusion protein (uncleaved) (human | rat (SD strain)) (UniProt A4KWA1); experiment: AUC; sedimentation velocity, 0.2 mg/ml, 48000 rpm, 20 °C, 10 mM HEPES pH 7.0, 150 mM NaCl, 10 mM NaN3, c(s) model
# [13] = target: pYD5 Fc-NKR-P1B^WAG fusion protein (uncleaved) (human | rat (WAG strain)) (UniProt Q5NKN4); experiment: SEC; gel filtration on Superdex 200 HR 10/30, room temperature
# [14] = target: pYD5 Fc-NKR-P1B^WAG fusion protein (uncleaved) (human | rat (WAG strain)) (UniProt Q5NKN4); experiment: AUC; sedimentation velocity, 0.2 mg/ml, 48000 rpm, 20 °C, 10 mM HEPES pH 7.0, 150 mM NaCl, 10 mM NaN3, c(s) model
# [15] = target: the molecule itself; experiment: non-reducing SDS-PAGE with Western blot; small-scale expression test; 10 ul of culture supernatant 3 days after transfection, 15% SDS-PAGE under non-reducing conditions, detected by PentaHis mAb; shows covalent dimers
# [16] = target: the molecule itself; experiment: SEC + other: non-reducing SDS-PAGE; gel filtration on Superdex 200 HR 10/30 after TEV cleavage, and 4-20% SDS-PAGE under reducing and non-reducing conditions
# pYD5 Fc-NKR-P1B^WAG fusion protein (uncleaved), sequence (Q5NKN4 whole entry, the tested form may be a part): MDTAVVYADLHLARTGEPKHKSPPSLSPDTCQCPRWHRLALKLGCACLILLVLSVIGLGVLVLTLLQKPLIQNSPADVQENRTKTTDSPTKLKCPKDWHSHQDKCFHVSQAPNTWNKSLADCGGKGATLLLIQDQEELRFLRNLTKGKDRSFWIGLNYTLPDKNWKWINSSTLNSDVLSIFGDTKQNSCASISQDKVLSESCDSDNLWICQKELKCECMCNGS
# pYD5 Fc-NKR-P1B^SD fusion protein (uncleaved), sequence (A4KWA1 whole entry, the tested form may be a part): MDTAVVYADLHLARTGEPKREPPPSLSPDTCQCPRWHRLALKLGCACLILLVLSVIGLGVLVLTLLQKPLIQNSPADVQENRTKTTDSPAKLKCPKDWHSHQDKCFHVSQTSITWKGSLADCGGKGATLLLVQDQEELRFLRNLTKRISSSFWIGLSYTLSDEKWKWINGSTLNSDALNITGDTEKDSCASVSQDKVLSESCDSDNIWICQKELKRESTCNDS
# NKR-P1B^WAG C-terminal FcHis fusion protein (pHLsec-FcHis, uncleaved), sequence (Q5NKN4 whole entry, the tested form may be a part): as the sequence (Q5NKN4 whole entry, the tested form may be a part) above
# NKR-P1B^SD C-terminal FcHis fusion protein (pHLsec-FcHis, uncleaved), sequence (A4KWA1 whole entry, the tested form may be a part): as the sequence (A4KWA1 whole entry, the tested form may be a part) above
molecule,measurement,setting,value
"Clr-11-FcHis fusion protein (Clr-11^WAG in pHLsec-FcHis, uncleaved) (from UniProt Q0H8B9 65-207) (Fc fusion)",stoichiometry N,[1],2
same,stoichiometry N,[2],2
"Clr-11^WAG V65-M207, histidine-tagged, expressed from pHLsec (from UniProt Q0H8B9 65-207) (domain or fragment)",stoichiometry N,[3],2
same,stoichiometry N,[4],2
same,stoichiometry N,[5],2
same,stoichiometry N,[6],2
Clr-11^WAG cleaved from the pHLsec-FcHis fusion by HRV 3C protease (from UniProt Q0H8B9 65-207) (domain or fragment),stoichiometry N,[7],2
same,stoichiometry N,[8],2
"NKR-P1B^SD C-terminal FcHis fusion protein (pHLsec-FcHis, uncleaved) (from UniProt A4KWA1 78-223) (Fc fusion)",stoichiometry N,[9],2
"NKR-P1B^WAG C-terminal FcHis fusion protein (pHLsec-FcHis, uncleaved) (from UniProt Q5NKN4 78-223) (Fc fusion)",stoichiometry N,[10],2
pYD5 Fc-NKR-P1B^SD fusion protein (uncleaved) (from UniProt A4KWA1 78-223) (Fc fusion),stoichiometry N,[11],2
same,stoichiometry N,[12],2
pYD5 Fc-NKR-P1B^WAG fusion protein (uncleaved) (from UniProt Q5NKN4 78-223) (Fc fusion),stoichiometry N,[13],2
same,stoichiometry N,[14],2
"NKR-P1B^WAG V78-S223, histidine-tagged, expressed from pHLsec (domain or fragment, rat (WAG strain), residues that the pHLsec vector adds to the N-terminus of the construct; rat NKR-P1B of the WAG strain, extracellular part with slightly shortened N-terminus, V78-S223; source: suspension-adapted HEK293T, transiently transfected, secreted, culture supernatant) ETGVQENRTKTTDSPTKLKCPKDWHSHQDKCFHVSQAPNTWNKSLADCGGKGATLLLIQDQEELRFLRNLTKGKDRSFWIGLNYTLPDKNWKWINSSTLNSDVLSIFGDTKQNSCASISQDKVLSESCDSDNLWICQKELKCECMCNGS",stoichiometry N,[15],2
"NKR-P1B^SD ectodomain cleaved from the pYD5 Fc fusion by TEV protease (domain or fragment, rat (SD strain), UniProt A4KWA1 78-223, looked up, rat NKR-P1B of the SD strain, ectodomain construct V78-S223; Obtained as a separable mixture of monomer and covalent dimer; also called pYD5_NKR-P1B^SD (monomeric and dimeric fractions); not shown: Fc (human IgG), N-terminal, cleaved) VQENRTKTTDSPAKLKCPKDWHSHQDKCFHVSQTSITWKGSLADCGGKGATLLLVQDQEELRFLRNLTKRISSSFWIGLSYTLSDEKWKWINGSTLNSDALNITGDTEKDSCASVSQDKVLSESCDSDNIWICQKELKRESTCNDS",stoichiometry N,[16],2
"NKR-P1B^WAG ectodomain cleaved from the pYD5 Fc fusion by TEV protease (domain or fragment, rat (WAG strain), UniProt Q5NKN4 78-223, looked up, rat NKR-P1B of the WAG strain, ectodomain construct V78-S223; Disulphide dimer; also called pYD5_NKR-P1B^WAG cleaved off by TEV protease; not shown: Fc (human IgG), N-terminal, cleaved) VQENRTKTTDSPTKLKCPKDWHSHQDKCFHVSQAPNTWNKSLADCGGKGATLLLIQDQEELRFLRNLTKGKDRSFWIGLNYTLPDKNWKWINSSTLNSDVLSIFGDTKQNSCASISQDKVLSESCDSDNLWICQKELKCECMCNGS",stoichiometry N,[16],2
